Test results reported in paper PMC11388181.

Legend:
[1] = Confocal immunofluorescence, HEK293; details: glycan lost; control: wild type
[2] = Western blot, B7-H5/GAPDH, HEK293 lysates; details: glycan lost; control: wild type

Substance | localisation_or_trafficking [1] | expression_or_secretion [2]
B7-H5/VISTA: N49A | no change | no change
B7-H5/VISTA: N128A | no change | no change
B7-H5/VISTA: N135A | no change | no change
B7-H5/VISTA: N108A | no change | no change
B7-H5/VISTA: N91A | no change | no change
